Assay results published in patent publication US9018171B2, “Uses of an immunomodulatory protein (GMI) from Ganoderma microsporum” (Mycomagic Biotechnology Co., Ltd., priority 2010, dated 2015).
“Also recorded” adds a separate entry of the source. Like-named read-outs stand apart in the source and are kept apart here.

Assays:
[1] = tested on: TK-10; assay: NCI60 in vitro screening, Renal Cancer; format: cell-based
[2] = tested on: NCI-H23; format: cell-based
[3] = tested on: U251; assay: NCI60 in vitro screening, CNS Cancer; format: cell-based; conditions: U251, one dose
[4] = tested on: Rac1; assay: Rac1 and Cdc42 activity assay (pull-down); format: cell-based, human; conditions: A549 cells, GMI 4, 16 μg/ml 24 h, 10 ng/mL EGF 3 min
Description: (§1) A549 cells were seeded onto 100 mm plates and cultured to around 80% confluence. The cells were then treated with various doses of GMI (4, 16 μg/ml). […] A549 cells were pretreated with various concentrations of GMI for 24 h before being stimulated with 10 ng/mL EGF for 3 min. After that, cells were washed with cold PBS and lysated on the dish in RIPA buffer. Active GTP-bound Rac1 or Cdc42 was pulled down using the GST-PBD fusion protein of PAK1 immobilized on glutathione beads and active Rac1 and Cdc42 were detected with anti-Rac1 and anti-Cdc42 antibodies.
(§2) Active Rac1 and Cdc42 were determined by pull-down assay (Binker et al., 2009, Biochem Biophys Res Commun, 379, 445-450). Serum-starved A549 cells were or were not stimulated for 3 min with EGF and then collected in 800 μl of ice-cold lysis-buffer. Lysates were centrifuged to remove cellular debris. From each supernatant, 5 μl were taken out to measure protein content using Protein Assay Kit (Bio-Rad, Hercules, Calif.). Twenty μl were removed to determine total Rac1 in total lysate, and the remaining volume was used for the pull-down assay. Lysates containing equal amounts of proteins were then mixed with 15 μg of GST-PAK-PBD-beads (Pierce). Samples for total Rac1 and Cdc42 in total lysate and the pelleted beads were diluted in Laemmli sample-buffer and boiled. The proteins were separated using SDS-PAGE (12% gel). […]

[5] = tested on: Cdc42; assay: Rac1 and Cdc42 activity assay (pull-down); format: cell-based, human; conditions: A549 cells, GMI 4, 16 μg/ml 24 h, 10 ng/mL EGF 3 min
Description: as §1, §2

[6] = tested on: CCRF-CEM; assay: NCI60 in vitro screening, Leukemia; format: cell-based
[7] = tested on: SNB-19; assay: NCI60 in vitro screening, CNS Cancer; format: cell-based
[8] = tested on: HT29; assay: NCI60 in vitro screening, Colon Cancer; format: cell-based
[9] = tested on: T-47D; assay: NCI60 in vitro screening, Breast Cancer; format: cell-based
[10] = tested on: 786-0; assay: NCI60 in vitro screening, Renal Cancer; format: cell-based
[11] = tested on: A549 cells; assay: Cell invasion assay (modified Boyden chamber, Matrigel); format: cell-based, human
Description: A549 cells (2×10^4 cells/well) were seeded onto the upper chamber of membrane and treated with different concentrations of GMI (4, 8, 16 μg/ml) for 2 hours. The bottom chamber was filled with DMEM supplemented with EGF 10 ng/ml or 100 ng/ml. After about 24 h, the invasive A549 cells passed through the membrane and were quantified by counting the cells that migrated onto the membrane. Cells were fixed, stained, and counted as described in the text. The data represent mean±SD.
Cell invasion assays were performed using modified Boyden chambers 6.5 mm in diameter, with […] porous (8 μm) polycarbonate membrane separating the two chambers (Transwell; Costar, Cambridge, Mass.). The membrane of the upper chamber was coated with Matrigel (0.3 mg/mL; BD Biosciences Discovery Labware) for 3 hours. Condition medium was prepared from A549 cells which were pretreated with or without GMI, LY294002 (50 μM), or AG1478 (2 μM) for 8 h. To the medium of the bottom chamber was added 10% FBS-DMEM containing EGF (10 ng/ml) or condition medium. Cells were trypsinized, centrifuged, and resuspended at 4×10^5 cells/mL in 0.5% FBS-DMEM. After 24 h incubation, the cells on the upper well and the membranes coated with Matrigel were fixed with methanol, and stained with 20% Giemsa solution (Merck). The cells that were attached to the lower surface of the polycarbonate filter were counted under a light microscope (magnification, X 100). The experiments were performed in triplicate.

[12] = tested on: IGROV1; assay: NCI60 in vitro screening, Ovarian Cancer; format: cell-based

B1: GMI: immunomodulatory protein from Ganoderma microsporum, amino acid sequence SEQ ID NO: 3, manufactured by Mycomagic Biotechnology Co., Ltd. (protein, listed as Ganoderma microsporum)
chain: MSDTALIFTLAWNVKQLAFDYTPNWGRGRPSSFIDTVTFPTVLTDKAYTYRVVVSGKDLGVRPSYAVESDGSQKINFLEYNSGYGIADTNTIQVYVIDPDTGNNFIVAQWN
For B1, the TGI ([1]; TK-10) was 4.91E0, the “Percent Growth” value ([1]; TK-10, Log10 Concentration 0.1) was 106% and the “Percent Growth” value ([1]; TK-10, Log10 Concentration 1.1) was −72%. The “Percent Growth” value ([1]; TK-10, Log10 Concentration 2.1) was −100%, the “Percent Growth” value ([1]; TK-10, Log10 Concentration −0.9) was 98% and the “Percent Growth” value ([1]; TK-10, Log10 Concentration −1.9) was 96%. The “Growth Percent” value ([1]; TK-10, one dose) was −92.37%, the GI50 ([1]; TK-10, in µg/mL) was 2.57E0 and the LC50 ([1]; TK-10, in µg/mL) was 9.38E0. For the same molecule, the TGI ([2]; NCI-H23) was over 1.25E2, the “Percent Growth” value ([2]; NCI-H23, Log10 Concentration 0.1) was 106% and the “Percent Growth” value ([2]; NCI-H23, Log10 Concentration 1.1) was 89%. The “Percent Growth” value ([2]; NCI-H23, Log10 Concentration 2.1) was 66%, the “Percent Growth” value ([2]; NCI-H23, Log10 Concentration −0.9) was 101% and the “Percent Growth” value ([2]; NCI-H23, Log10 Concentration −1.9) was 99%. For the same molecule, the “Growth Percent” value ([2]; NCI-H23, one dose) was 91.82%, the “Growth Percent” value [3] was 69.04% and the “EGF-promoted Rac1 activity” value [4] was “little effect on Rac1; also recorded: little reduction in Rac1 activity”. For the same molecule, the “EGF-promoted Cdc42 activity” value [5] was “inhibits Cdc42 activation; also recorded: reduced EGF-promoted Cdc42 activity in a dose-dependent manner”, the TGI [6] was over 1.25E2 and the “Percent Growth” value ([6]; Log10 Concentration 0.1) was 97%. For the same molecule, the “Percent Growth” value ([6]; Log10 Concentration 1.1) was 58%, the “Percent Growth” value ([6]; Log10 Concentration 2.1) was 18% and the “Percent Growth” value ([6]; Log10 Concentration −0.9) was 101%. The “Percent Growth” value ([6]; Log10 Concentration −1.9) was 104%, the GI50 ([6]; in µg/mL) was 2.02E1 and the TGI ([7]; SNB-19) was 4.27E1. The “Percent Growth” value ([7]; SNB-19, Log10 Concentration 0.1) was 95%, the “Percent Growth” value ([7]; SNB-19, Log10 Concentration 1.1) was 66% and the “Percent Growth” value ([7]; SNB-19, Log10 Concentration 2.1) was −58%. For the same molecule, the “Percent Growth” value ([7]; SNB-19, Log10 Concentration −0.9) was 98%, the “Percent Growth” value ([7]; SNB-19, Log10 Concentration −1.9) was 98% and the “Growth Percent” value ([7]; SNB-19, one dose) was 58.70%. It also gave a GI50 ([7]; SNB-19, in µg/mL) of 1.69E1, an LC50 ([7]; SNB-19, in µg/mL) of 1.08E2 and a TGI ([8]; HT29) of over 1.25E2. For the same molecule, the “Percent Growth” value ([8]; HT29, Log10 Concentration 0.1) was 98%, the “Percent Growth” value ([8]; HT29, Log10 Concentration 1.1) was 57% and the “Percent Growth” value ([8]; HT29, Log10 Concentration 2.1) was 22%. The “Percent Growth” value ([8]; HT29, Log10 Concentration −0.9) was 99%, the “Percent Growth” value ([8]; HT29, Log10 Concentration −1.9) was 100% and the “Growth Percent” value ([8]; HT29, one dose) was 28.36%. The GI50 ([8]; HT29, in µg/mL) was 1.95E1, the TGI [9] was over 1.25E2 and the “Percent Growth” value ([9]; Log10 Concentration 0.1) was 88%. The “Percent Growth” value ([9]; Log10 Concentration 1.1) was 43%, the “Percent Growth” value ([9]; Log10 Concentration 2.1) was 13% and the “Percent Growth” value ([9]; Log10 Concentration −0.9) was 96%. For the same molecule, the “Percent Growth” value ([9]; Log10 Concentration −1.9) was 101%, the GI50 ([9]; in µg/mL) was 8.63E0 and the “Growth Percent” value ([9]; one dose) was 28.25%. For the same molecule, the TGI ([10]; 786-0) was over 1.25E2, the “Percent Growth” value ([10]; 786-0, Log10 Concentration 0.1) was 111% and the “Percent Growth” value ([10]; 786-0, Log10 Concentration 1.1) was 73%. The “Percent Growth” value ([10]; 786-0, Log10 Concentration 2.1) was 4%, the “Percent Growth” value ([10]; 786-0, Log10 Concentration −0.9) was 99% and the “Percent Growth” value ([10]; 786-0, Log10 Concentration −1.9) was 100%. For the same molecule, the “Growth Percent” value ([10]; 786-0, one dose) was 74.75%, the GI50 ([10]; 786-0, in µg/mL) was 2.70E1 and the “EGF-promoted invasion reduced to” value ([11]; GMI 4 μg/ml, EGF) was 52%. The invaded cell number ([11]; GMI 4 μg/ml, EGF, decreased from 2515±212) was 1306±30, the “invasion reduced to” value ([11]; GMI 4 μg/ml, without EGF) was 22% and the invaded cell number ([11]; GMI 4 μg/ml, without EGF, decreased from 1895±37) was 419±6. For the same molecule, the “EGF-promoted invasion reduced to” value ([11]; GMI 16 μg/ml, EGF) was “less than 5%”, the invaded cell number ([11]; GMI 16 μg/ml, EGF, decreased from 2515±212) was 121±39 and the “invasion reduced to” value ([11]; GMI 16 μg/ml, without EGF) was “less than 9%”. The invaded cell number ([11]; GMI 16 μg/ml, without EGF, decreased from 1895±37) was 61±3, the “EGF-promoted invasion of A549 cells” value ([11]; increasing concentrations of GMI, EGF) was “significantly inhibits; also recorded: dose-dependent decrease in EGF-promoted invasion” and the “invasion of A549 cells” value ([11]; increasing concentrations of GMI, without EGF) was “dose-dependent decrease in invasion”. The TGI ([12]; IGROV1) was over 1.25E2, the “Percent Growth” value ([12]; IGROV1, Log10 Concentration 0.1) was 117% and the “Percent Growth” value ([12]; IGROV1, Log10 Concentration 1.1) was 62%. The “Percent Growth” value ([12]; IGROV1, Log10 Concentration 2.1) was 30%, the “Percent Growth” value ([12]; IGROV1, Log10 Concentration −0.9) was 98% and the “Percent Growth” value ([12]; IGROV1, Log10 Concentration −1.9) was 103%. The “Growth Percent” value ([12]; IGROV1, one dose) was 30.07% and the GI50 ([12]; IGROV1, in µg/mL) was 2.94E1.
